{"source": "patent US20060105398A1", "about": "“Methods of identifying compounds that modulate igg mediated mast cell activation” (Rigel Pharmaceuticals, Inc, priority 2002, published 2006)", "tested_on": "FcγRI activation of cultured human mast cells (CHMC)", "assay": "Priming of mast cells, tryptase activity in supernatant after Fcγ activation with IgG and anti-IgG", "assay_type": "cell-based", "conditions": "IL-4 absent or present in priming solution; IgE primed mast cells; human IgG3 and rabbit anti-human IgG (FIG. 1A, 1B)", "experimental": "Priming of mast cells is carried out by seeding the cells on Day 0 at 3.5×10^5 cells/mL in culture media plus SCF (200 ng/mL), IL-6 (200 ng/mL), IL-4 ([…]), IgE (200 ng/mL), and IgG3 (200 ng/mL).\nActivation or stimulation of cells is done on Day 3 by centrifuging the cells down and resupending them at 1.5×10^3 cells/mL in modified tyrodes (MT: 137 mM NaCl, 2.7 mM KCI, 1.8 mM CaCl2, 5.6 mM glucose, 20 mM Hepes (pH 7.4), 0.1% Bovine Serum Albumin (Sigma A4503)), with or without rabbit anti-human IgG (200 ng/mL final conc.), for 30 minutes at 37° C. (see Demo, S. D., Cytometry. 36(4):340-348 (1999)).\nDegranulation is measured by centrifuging down the sample, and harvesting the supernatant and measuring tryptase activity. The tryptase assays are performed under standard conditions (25 uL supernatant added to 100 uL of 10 uM tryptase substrate [20 mM stock solution of Z-Ala-Lys-Arg-AMC2TFA (Enzyme systems Products, Catalog No. AMC-246) diluted 1:2000 in tryptase assay buffer [[…] (pH 7.5), 10% w/v Glycerol, […], 0.01% NaN3] for 30 min at 37° C. The reactions are read in plate reader (Wallac, Victor 2, 1420 Multilabel Counter)."}
{"substance": "IL-4: cytokine added to the priming solution (20 ng/mL)", "values": [{"measurement": "effect on activation (tryptase activity in the supernatant)", "value": "did not appear to substantially affect activation"}]}
